What was measured:
[1] = molecular target: T1, soluble Fas ligand molecule (human Fas ligand released into the supernatant of COS cells transfected with … (human, UniProt P48023 130-281, limits assumed)); assay: cell-based or functional assay
T1 sequence (looked up): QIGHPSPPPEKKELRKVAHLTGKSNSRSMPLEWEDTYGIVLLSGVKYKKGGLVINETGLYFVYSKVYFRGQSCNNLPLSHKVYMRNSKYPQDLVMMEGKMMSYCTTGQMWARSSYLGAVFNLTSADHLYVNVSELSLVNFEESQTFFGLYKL

[2] = molecular target: T2, Fas ligand peptide VMMEGKMMSYCTTGQ (223-237 positions) (human); assay: PepSet pin ELISA, hybridoma culture supernatant, HRP anti-mouse IgG
T2 construct: Synthetic 15-mer immobilized on a PepSet pin
T2 peptide: VMMEGKMMSYCTTGQ
Procedure: (§1) (9) After removal of the pins of PepSet from the plate, 50 μl of 2N H_2SO_4 was added to the wells to quench the reaction.
(§2) Thus, it has been shown that the anti-Fas ligand antibody produced by NOK1 and NOK4 hybridomas recognize the region, […]-[…] (SEQ ID NO:139), of Fas ligand, whereas the anti-Fas ligand antibody of NOK2 hybridoma recognizes the region, […]-[…] (SEQ ID NO:140), of Fas ligand.

[3] = molecular target: T3, Fas ligand peptide KMMSYCTTGQMWARS (228-242 positions) (human); assay: as above
T3 construct: Synthetic 15-mer immobilized on a PepSet pin
T3 peptide: KMMSYCTTGQMWARS
Procedure: as §1, §2

[4] = molecular target: T4, Fas ligand peptide YPQDLVMMEGKMMSY (218-232 positions) (human); assay: as above
T4 construct: Synthetic 15-mer immobilized on a PepSet pin
T4 peptide: YPQDLVMMEGKMMSY
Procedure: as §1, §2

B1: RNOK201 (humanized NOK2 antibody, RNOK2VHver11 with RNOK2VLver1) (antibody, V domains shown)
VH: QVQLVQSGAEVKKPGASVKVSCKASGYTFTNYWIGWVKQAPGQGLEWIGYLYPGGLYTNYNEKFKGKATMTADTSTNTAYMELSSLRSEDTAVYYCARYRDYDYAMDYWGQGTLVTVSS
VL: DVVMTQTPSSLSASVGDRASISCKSTKSLLNSDGFTYLGWCQQKPGQSPQLLIYLVSNRFSGVPDRFSGSGSGTDFTLKISSLQPEDIATYYCFQSNYLPLTFGQGTKVEIKR
[1]
  apoptosis inhibition: viable rate of Fas-WR19L target cells with soluble Fas ligand, Alamar Blue fluorescence, 17 h: ≥ 90%

B2: RNOK202 (humanized NOK2 antibody, RNOK2VHver11 with RNOK2VLver21) (antibody, V domains shown)
VH: QVQLVQSGAEVKKPGASVKVSCKASGYTFTNYWIGWVKQAPGQGLEWIGYLYPGGLYTNYNEKFKGKATMTADTSTNTAYMELSSLRSEDTAVYYCARYRDYDYAMDYWGQGTLVTVSS
VL: DVVMTQTPLSLPVTPGEPASISCKSTKSLLNSDGFTYLGWCLQKPGQSPQLLIYLVSNRFSGVPDRFSGSGSGTDFTLKISRVEAEDVGVYYCFQSNYLPLTFGQGTKLEIKR
[1]
  apoptosis inhibition: viable rate of Fas-WR19L target cells with soluble Fas ligand, Alamar Blue fluorescence, 17 h: ≥ 90%

B3: RNOK203 (humanized NOK2 antibody, RNOK2VHver11 with RNOK2VLver22) (antibody, V domains shown)
VH: QVQLVQSGAEVKKPGASVKVSCKASGYTFTNYWIGWVKQAPGQGLEWIGYLYPGGLYTNYNEKFKGKATMTADTSTNTAYMELSSLRSEDTAVYYCARYRDYDYAMDYWGQGTLVTVSS
VL: DVVMTQTPLSLPVTLGQPASISCKSTKSLLNSDGFTYLGWCLQKPGQSPQLLIYLVSNRFSGVPDRFSGSGSGTDFTLKISRVEAEDVGVYYCFQSNYLPLTFGQGTKLEIKR
[1]
  apoptosis inhibition: viable rate of Fas-WR19L target cells with soluble Fas ligand, Alamar Blue fluorescence, 17 h: ≥ 90%

B4: NOK2 antibody (mouse anti-Fas ligand monoclonal antibody of hybridoma NOK2, FERM BP-5045) (antibody, V domains shown)
VH: QVHLQQSGAELVRPGTSVKMSCKAAGYTFTNYWIGWVKQRPGHGLEWIGYLYPGGLYTNYNEKFKGKATLTADTSSSTAYMQLSSLTSEDSAIYYCARYRDYDYAMDYWGQGTSVTVSS
VL: DVVLTQTPLSLPVNIGDQASISCKSTKSLLNSDGFTYLGWCLQKPGQSPQLLIYLVSNRFSGVPDRFSGSGSGTDFTLKISRVEAEDLGVYYCFQSNYLPLTFGSGTKLEIKR
notes: Mouse IgG, purified on protein G; kappa light chain; Those are derived from the cloned PCR product and may hold leader or primer residues; also called mouse NOK2 immunoglobulin; NOK2 immunoglobulin
[2]
  binding result: binds
[3]
  binding result: binds
[4]
  binding result: binds

Reference: patent publication US6777540 (dated 2004)
